Consider one molecule from article PMC10953399, “Escherichia coli DNA repair helicase Lhr is also a uracil‐DNA glycosylase”.

This data set deals with LhrD1536A (Escherichia coli MG1655, UniProt P30015 1-1538, D1536A). Description: EMSA; 5 mM EDTA; 12.5-200 nM protein, 12.5 nM DNA; similar to Lhr; 20 mM Tris pH 7.5, 10% glycerol, 100 ug/mL BSA, 25 mM DTT, 5 mM EDTA, 12.5 nM Cy5-DNA; 37 C 20 min then ice 10 min; 5% acrylamide TBE gel. The following applies: protein: recombinant; tags: His6; label: 5' Cy5; single strand.

B1: Cy5-ssDNA (EMSA) (ssDNA)
DNA: TCGGATCCTCTAGACAGCTCCATGATCACTGGCACTGGTAGAATTCGGC
For B1, the binding result was “binds”.
